Reference: PMC10767048 (Nature Communications, 2024)

Target: T1, bovine serum albumin (Bos taurus, UniProt P02769)
T1 construct: also called BSA
Assay: ELISA
Conditions: both partners purified

T1 sequence (P02769 25-607): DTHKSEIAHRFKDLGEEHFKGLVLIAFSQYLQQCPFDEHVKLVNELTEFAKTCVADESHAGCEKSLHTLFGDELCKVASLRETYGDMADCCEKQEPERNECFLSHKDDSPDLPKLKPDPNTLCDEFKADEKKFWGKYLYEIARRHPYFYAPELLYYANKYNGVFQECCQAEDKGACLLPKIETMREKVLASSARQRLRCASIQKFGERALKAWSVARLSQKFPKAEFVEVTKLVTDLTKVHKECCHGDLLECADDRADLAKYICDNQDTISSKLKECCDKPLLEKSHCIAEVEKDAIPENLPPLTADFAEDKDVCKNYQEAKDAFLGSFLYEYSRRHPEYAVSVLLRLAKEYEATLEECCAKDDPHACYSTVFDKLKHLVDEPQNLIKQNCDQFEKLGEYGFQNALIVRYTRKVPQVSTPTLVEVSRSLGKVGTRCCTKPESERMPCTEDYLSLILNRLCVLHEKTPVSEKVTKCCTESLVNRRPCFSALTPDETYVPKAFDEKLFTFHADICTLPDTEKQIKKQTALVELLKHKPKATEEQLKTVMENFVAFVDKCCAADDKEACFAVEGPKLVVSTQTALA

B1: nanobody D5 (camel VHH) (VHH)
VHH: AWQLVESGGGSVQPGGSLTLTCQASKSTFSTSGMRWERQAQGKGVEFVADISSDSTRKWYSDSVKGRFTISRSNWWRTVTLQMNDLKPEDTARYYCKDLESHHLRGQGTQVTVSS
notes: source: E. coli HB2151 (pComb3x phagemid), released with polymyxin B, purified (HisTrap)
binding result: no binding (tested: 1 μg/ml)
